Where no end group is shown, it is not given here. [ ]: non-standard residue; d: D form. Aib = CC(C)(N)C(=O)O
B1: Compound A64 (peptide)
peptide: YTHGTFTSDYSKYLD[Aib]ARAQEFV[Aib]WLEDEPSSGAPPPS-OH
modifications: N-terminus assumed
SMILES: CC(C)C[C@H](NC(=O)[C@H](Cc1ccc(O)cc1)NC(=O)[C@H](CCCCN)NC(=O)[C@H](CO)NC(=O)[C@H](Cc1ccc(O)cc1)NC(=O)[C@H](CC(=O)O)NC(=O)[C@H](CO)NC(=O)[C@@H](NC(=O)[C@H](Cc1ccccc1)NC(=O)[C@@H](NC(=O)CNC(=O)[C@H](Cc1c[nH]cn1)NC(=O)[C@@H](NC(=O)[C@@H](N)Cc1ccc(O)cc1)[C@@H](C)O)[C@@H](C)O)[C@@H](C)O)C(=O)N[C@@H](CC(=O)O)C(=O)NC(C)(C)C(=O)N[C@@H](C)C(=O)N[C@@H](CCCNC(=N)N)C(=O)N[C@@H](C)C(=O)N[C@@H](CCC(N)=O)C(=O)N[C@@H](CCC(=O)O)C(=O)N[C@@H](Cc1ccccc1)C(=O)N[C@H](C(=O)NC(C)(C)C(=O)N[C@@H](Cc1c[nH]c2ccccc12)C(=O)N[C@@H](CC(C)C)C(=O)N[C@@H](CCC(=O)O)C(=O)N[C@@H](CC(=O)O)C(=O)N[C@@H](CCC(=O)O)C(=O)N1CCC[C@H]1C(=O)N[C@@H](CO)C(=O)N[C@@H](CO)C(=O)NCC(=O)N[C@@H](C)C(=O)N1CCC[C@H]1C(=O)N1CCC[C@H]1C(=O)N1CCC[C@H]1C(=O)N[C@@H](CO)C(=O)O)C(C)C
B2: Compound A65 (peptide)
peptide: YSHGTFTSDYSKYLD[Aib]KRAQEFV[Aib]WLEDEPKSKEPPPS-NH2
modifications: N-terminus assumed
SMILES: CC(C)C[C@H](NC(=O)[C@H](Cc1ccc(O)cc1)NC(=O)[C@H](CCCCN)NC(=O)[C@H](CO)NC(=O)[C@H](Cc1ccc(O)cc1)NC(=O)[C@H](CC(=O)O)NC(=O)[C@H](CO)NC(=O)[C@@H](NC(=O)[C@H](Cc1ccccc1)NC(=O)[C@@H](NC(=O)CNC(=O)[C@H](Cc1c[nH]cn1)NC(=O)[C@H](CO)NC(=O)[C@@H](N)Cc1ccc(O)cc1)[C@@H](C)O)[C@@H](C)O)C(=O)N[C@@H](CC(=O)O)C(=O)NC(C)(C)C(=O)N[C@@H](CCCCN)C(=O)N[C@@H](CCCNC(=N)N)C(=O)N[C@@H](C)C(=O)N[C@@H](CCC(N)=O)C(=O)N[C@@H](CCC(=O)O)C(=O)N[C@@H](Cc1ccccc1)C(=O)N[C@H](C(=O)NC(C)(C)C(=O)N[C@@H](Cc1c[nH]c2ccccc12)C(=O)N[C@@H](CC(C)C)C(=O)N[C@@H](CCC(=O)O)C(=O)N[C@@H](CC(=O)O)C(=O)N[C@@H](CCC(=O)O)C(=O)N1CCC[C@H]1C(=O)N[C@@H](CCCCN)C(=O)N[C@@H](CO)C(=O)N[C@@H](CCCCN)C(=O)N[C@@H](CCC(=O)O)C(=O)N1CCC[C@H]1C(=O)N1CCC[C@H]1C(=O)N1CCC[C@H]1C(=O)N[C@@H](CO)C(N)=O)C(C)C
B3: Compound A66 (peptide)
peptide: YSHGTFTSDYSKYLD[Aib]KRAQEFV[Aib]WLEDEPKSKSPPPS-NH2
modifications: N-terminus assumed
SMILES: CC(C)C[C@H](NC(=O)[C@H](Cc1ccc(O)cc1)NC(=O)[C@H](CCCCN)NC(=O)[C@H](CO)NC(=O)[C@H](Cc1ccc(O)cc1)NC(=O)[C@H](CC(=O)O)NC(=O)[C@H](CO)NC(=O)[C@@H](NC(=O)[C@H](Cc1ccccc1)NC(=O)[C@@H](NC(=O)CNC(=O)[C@H](Cc1c[nH]cn1)NC(=O)[C@H](CO)NC(=O)[C@@H](N)Cc1ccc(O)cc1)[C@@H](C)O)[C@@H](C)O)C(=O)N[C@@H](CC(=O)O)C(=O)NC(C)(C)C(=O)N[C@@H](CCCCN)C(=O)N[C@@H](CCCNC(=N)N)C(=O)N[C@@H](C)C(=O)N[C@@H](CCC(N)=O)C(=O)N[C@@H](CCC(=O)O)C(=O)N[C@@H](Cc1ccccc1)C(=O)N[C@H](C(=O)NC(C)(C)C(=O)N[C@@H](Cc1c[nH]c2ccccc12)C(=O)N[C@@H](CC(C)C)C(=O)N[C@@H](CCC(=O)O)C(=O)N[C@@H](CC(=O)O)C(=O)N[C@@H](CCC(=O)O)C(=O)N1CCC[C@H]1C(=O)N[C@@H](CCCCN)C(=O)N[C@@H](CO)C(=O)N[C@@H](CCCCN)C(=O)N[C@@H](CO)C(=O)N1CCC[C@H]1C(=O)N1CCC[C@H]1C(=O)N1CCC[C@H]1C(=O)N[C@@H](CO)C(N)=O)C(C)C
B4: Compound A67 (peptide)
peptide: YSHGTFTSDYSKYLD[Aib]ARAQEFV[Aib]WLEDEPKSKSPPPS-NH2
modifications: N-terminus assumed
SMILES: CC(C)C[C@H](NC(=O)[C@H](Cc1ccc(O)cc1)NC(=O)[C@H](CCCCN)NC(=O)[C@H](CO)NC(=O)[C@H](Cc1ccc(O)cc1)NC(=O)[C@H](CC(=O)O)NC(=O)[C@H](CO)NC(=O)[C@@H](NC(=O)[C@H](Cc1ccccc1)NC(=O)[C@@H](NC(=O)CNC(=O)[C@H](Cc1c[nH]cn1)NC(=O)[C@H](CO)NC(=O)[C@@H](N)Cc1ccc(O)cc1)[C@@H](C)O)[C@@H](C)O)C(=O)N[C@@H](CC(=O)O)C(=O)NC(C)(C)C(=O)N[C@@H](C)C(=O)N[C@@H](CCCNC(=N)N)C(=O)N[C@@H](C)C(=O)N[C@@H](CCC(N)=O)C(=O)N[C@@H](CCC(=O)O)C(=O)N[C@@H](Cc1ccccc1)C(=O)N[C@H](C(=O)NC(C)(C)C(=O)N[C@@H](Cc1c[nH]c2ccccc12)C(=O)N[C@@H](CC(C)C)C(=O)N[C@@H](CCC(=O)O)C(=O)N[C@@H](CC(=O)O)C(=O)N[C@@H](CCC(=O)O)C(=O)N1CCC[C@H]1C(=O)N[C@@H](CCCCN)C(=O)N[C@@H](CO)C(=O)N[C@@H](CCCCN)C(=O)N[C@@H](CO)C(=O)N1CCC[C@H]1C(=O)N1CCC[C@H]1C(=O)N1CCC[C@H]1C(=O)N[C@@H](CO)C(N)=O)C(C)C
B5: Compound A68 (peptide)
peptide: YSHGTFTSDYSKYLD[Aib]ARAQEFV[Aib]WLEDEPKSKEPPPS-NH2
modifications: N-terminus assumed
SMILES: CC(C)C[C@H](NC(=O)[C@H](Cc1ccc(O)cc1)NC(=O)[C@H](CCCCN)NC(=O)[C@H](CO)NC(=O)[C@H](Cc1ccc(O)cc1)NC(=O)[C@H](CC(=O)O)NC(=O)[C@H](CO)NC(=O)[C@@H](NC(=O)[C@H](Cc1ccccc1)NC(=O)[C@@H](NC(=O)CNC(=O)[C@H](Cc1c[nH]cn1)NC(=O)[C@H](CO)NC(=O)[C@@H](N)Cc1ccc(O)cc1)[C@@H](C)O)[C@@H](C)O)C(=O)N[C@@H](CC(=O)O)C(=O)NC(C)(C)C(=O)N[C@@H](C)C(=O)N[C@@H](CCCNC(=N)N)C(=O)N[C@@H](C)C(=O)N[C@@H](CCC(N)=O)C(=O)N[C@@H](CCC(=O)O)C(=O)N[C@@H](Cc1ccccc1)C(=O)N[C@H](C(=O)NC(C)(C)C(=O)N[C@@H](Cc1c[nH]c2ccccc12)C(=O)N[C@@H](CC(C)C)C(=O)N[C@@H](CCC(=O)O)C(=O)N[C@@H](CC(=O)O)C(=O)N[C@@H](CCC(=O)O)C(=O)N1CCC[C@H]1C(=O)N[C@@H](CCCCN)C(=O)N[C@@H](CO)C(=O)N[C@@H](CCCCN)C(=O)N[C@@H](CCC(=O)O)C(=O)N1CCC[C@H]1C(=O)N1CCC[C@H]1C(=O)N1CCC[C@H]1C(=O)N[C@@H](CO)C(N)=O)C(C)C
B6: Compound A75 (peptide)
peptide: WSHGTFTSDYSKYLD[Aib]KRAQEFV[Aib]WLEDEPSSGAPPPS-OH
modifications: N-terminus assumed
SMILES: CC(C)C[C@H](NC(=O)[C@H](Cc1ccc(O)cc1)NC(=O)[C@H](CCCCN)NC(=O)[C@H](CO)NC(=O)[C@H](Cc1ccc(O)cc1)NC(=O)[C@H](CC(=O)O)NC(=O)[C@H](CO)NC(=O)[C@@H](NC(=O)[C@H](Cc1ccccc1)NC(=O)[C@@H](NC(=O)CNC(=O)[C@H](Cc1c[nH]cn1)NC(=O)[C@H](CO)NC(=O)[C@@H](N)Cc1c[nH]c2ccccc12)[C@@H](C)O)[C@@H](C)O)C(=O)N[C@@H](CC(=O)O)C(=O)NC(C)(C)C(=O)N[C@@H](CCCCN)C(=O)N[C@@H](CCCNC(=N)N)C(=O)N[C@@H](C)C(=O)N[C@@H](CCC(N)=O)C(=O)N[C@@H](CCC(=O)O)C(=O)N[C@@H](Cc1ccccc1)C(=O)N[C@H](C(=O)NC(C)(C)C(=O)N[C@@H](Cc1c[nH]c2ccccc12)C(=O)N[C@@H](CC(C)C)C(=O)N[C@@H](CCC(=O)O)C(=O)N[C@@H](CC(=O)O)C(=O)N[C@@H](CCC(=O)O)C(=O)N1CCC[C@H]1C(=O)N[C@@H](CO)C(=O)N[C@@H](CO)C(=O)NCC(=O)N[C@@H](C)C(=O)N1CCC[C@H]1C(=O)N1CCC[C@H]1C(=O)N1CCC[C@H]1C(=O)N[C@@H](CO)C(=O)O)C(C)C

Columns and labels:
[1] = biological target: human GLP-1 receptor (GLP-1R) (human, UniProt P43220 24-463); assay: cell-based or functional assay
[2] = biological target: human glucagon receptor (GCGR) (human, UniProt P47871 26-477); assay: cell-based or functional assay

Chain of human GLP-1 receptor (GLP-1R) (P43220 24-463): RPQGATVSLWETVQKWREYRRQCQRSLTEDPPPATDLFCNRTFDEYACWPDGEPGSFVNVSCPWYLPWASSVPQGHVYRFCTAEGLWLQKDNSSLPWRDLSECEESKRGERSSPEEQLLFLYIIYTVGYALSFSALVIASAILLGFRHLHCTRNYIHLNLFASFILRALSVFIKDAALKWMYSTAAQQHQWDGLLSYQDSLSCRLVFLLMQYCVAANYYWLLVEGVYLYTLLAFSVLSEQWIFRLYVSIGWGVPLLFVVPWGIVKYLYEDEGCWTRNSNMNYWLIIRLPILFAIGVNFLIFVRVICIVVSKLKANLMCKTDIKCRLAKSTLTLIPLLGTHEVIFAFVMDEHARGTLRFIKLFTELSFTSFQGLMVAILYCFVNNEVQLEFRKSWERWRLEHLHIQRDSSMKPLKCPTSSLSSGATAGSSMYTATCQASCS

Row | Binder | hGLP1 pEC50 (cAMP) [1] | hGCGR pEC50 (cAMP) [2]
1 | B1 | < 9 pEC50 | 10.7 pEC50
2 | B2 | < 9 pEC50 | 12.5 pEC50
3 | B3 | < 9 pEC50 | 12.5 pEC50
4 | B4 | < 9 pEC50 | 10.9 pEC50
5 | B5 | < 9 pEC50 | 11.3 pEC50
6 | YSHGTFTSDYSKYLDSARAQEFVKWLEDEPKSKEPPPS-OH [Compound A69] | < 9 pEC50 | 11.8 pEC50
7 | YSHGTFTSDYSKYLDSARAQEFVKWLEDEPKSKSPPPS-OH [Compound A70] | < 9 pEC50 | 12 pEC50
8 | YSHGTFTSDYSKYLDSARAQEFVKWLEDEPKSKAPPPS-OH [Compound A71] | < 9 pEC50 | 11.7 pEC50
9 | YSHGTFTSDYSKYLDSARAQEFVKWLEDEPKSKEPPPS-NH2 [Compound A72] | < 9 pEC50 | 12.1 pEC50
10 | YSHGTFTSDYSKYLDSARAQEFVKWLEDEPKSKSPPPS-NH2 [Compound A73] | < 9 pEC50 | 11.7 pEC50
11 | YSHGTFTSDYSKYLDSARAQEFVKWLEDEPKSKAPPPS-NH2 [Compound A74] | < 9 pEC50 | 11.6 pEC50
12 | B6 | < 9 pEC50 | 11.3 pEC50
